Experimental findings from US20240117073A1, “METHODS OF TREATING NEOPLASTIC ASTROCYTOMA” (Ludwig Institute for Cancer Research Ltd., priority 2009, published 2024) are described below.

Values joined by “and” are separate entries in the source; they are usually repeats but may differ in a detail not shown here. Equal values may be shown once. “Also recorded” adds a separate entry of the source.

Data set [1] concerns U87MG expressing wild-type EGFR. The experiment in a line: protein A mixed hemadsorption. Type of data set: cell-based, human. The settings on record: undiluted supernatant less than 10%. The procedure: As expected, the 528 antibody stained both the U87MG.Δ2-7 and U87MG.wtEGFR cell lines (FIG. 1). As expected, the 528 antibody stained U87MG.Δ2-7 with a higher intensity than the parental cell as it binds both the de2-7 and wild-type receptors that are co-expressed in these cells (FIG. 1). Similar results were obtained using a protein A mixed hemadsorption which detects surface bound IgG by appearance of […] (group O) to target cells.

The subject of data set [2] is HN5 head and neck cell line. The experiment in a line: FACS binding to cell lines. Type of data set: cell-based, human. For orientation: In flow cytometry, cells or beads pass a laser one at a time.
The subject of a further data set is U87MG xenografts. The data set can be described thus: preventative xenograft model. The settings on record: 1 mg per injection i.p., 3 times per week for 2 weeks. Type of data set: in vivo, nude mice. The procedure:
(§1) Tumor cells (3×10^6) in […] of PBS were inoculated subcutaneously into both flanks of 4-6 week old female nude mice (Animal Research Centre, Western Australia, Australia). […] Treatment was continued for a total of 6 doses, 3 times per week for 2 weeks. In the established model, treatment was started when tumors had reached a mean volume of 65±6.42 mm^3 (U87MG.Δ2-7), 84±9.07 mm^3 (U87MG), 73±7.5 mm^3 (U87MG.wtEGFR) or 201±19.09 mm^3 (A431 tumors). Tumor volume in mm^3 was determined using the formula (length×width^2)/2, where length was the longest axis and width the measurement at right angles to the length (Clark et al. (2000) Therapeutic efficacy of anti-Lewis (y) humanized 3S 193 radioimmunotherapy in a breast cancer model: enhanced activity when combined with Taxol chemotherapy. Clin. Cancer Res. 6, 3621-3628). Data was expressed as mean tumor volume±S.E. for each treatment group. Statistical analysis was performed at given time points using Student's t-test. Animals were euthanized when the xenografts reached an approximate volume of 1.5 cm^3 and the tumors excised for histological examination. This research project was approved by the Animal Ethics Committee of the Austin and Repatriation Medical Centre.

Data set [3] has as its target T1, sEGFR (recombinant extracellular domain, amino acids 1-621, of the wild-type EGFR) (Homo sapiens, UniProt P00533).
T1 construct: sEGFR is the recombinant extracellular domain (amino acids 1-621) of the wild-type EGFR; host or cells: CHO cells
The data set can be described thus: ELISA on sEGFR coated plates. It counts as binding. Here is the method: Two types of ELISA were used to determine the specificity of the antibodies. […] Growth Factors. 18, 11-29). Antibodies were added to wells in triplicate at increasing concentration in 2% HSA in phosphate-buffered saline (PBS).

For another data set, the system named is A431 cells. The data set can be described thus: FACS binding to cell lines. Type of data set: cell-based, human.
In the next data set the test system is U87MG.de2-7 cells. The data set can be described thus: ADCC assay. It counts as cell-based, human. The settings on record: E:T ratio 50:1.
The test system of a further data set is A431 xenografts. To be noted: mouse, in vivo.
In another data set the test system is U87MG.wtEGFR xenografts. The experiment in a line: established xenograft model. Type of data set: in vivo, nude mice. The settings on record: day control animals were sacrificed; 1 mg injections. Here is the method: as §1, with “Centre. […]” for “Centre.”
The test system of data set [4] is U87MG.DK brain xenografts. The data set can be described thus: systemic treatment of intracranial xenografts. The settings on record: mouse, in vivo. On the set-up: species or system nude mice.
Procedure: U87MG.ΔEGFR cells (1×10^5) or 5×10^5 LN-Z308.ΔEGFR, A1207.ΔEGFR, U87MG, U87MG.DK, and U87MG.wtEGFR cells in 5 μl of PBS were implanted into the right corpus stratum of nude mice brains as described previously (Mishima et al. (2000) A peptide derived from the non-receptor binding region of urokinase plasminogen activator inhibits glioblastoma growth and angiogenesis in vivo in combination with cisplatin. Proc. Natl. Acad. Sci. U.S.A. 97, 8484-8489).
A further data set deals with U87MG cells. The experiment in a line: FACS binding to cell lines. Type of data set: cell-based, human.
The test system of the next data set is U87MG.wtEGFR cells. The data set can be described thus: FACS binding to cell lines. It counts as cell-based, human. Here is the method:
Briefly, cells were labelled with the relevant antibody (10 μg/ml) followed by fluorescein-conjugated goat anti-mouse IgG (1:100 dilution; Calbiochem San Diego, CA, USA; Becton-Dickinson PharMingen, San Diego, CA, US) as described previously (Nishikawa et al., 1994). FACS data was obtained on a Coulter Epics Elite ESP by observing a minimum of 5,000 events and analyzed using EXPO (version 2) for Windows.
Stained cells were analyzed with a FACS Calibur™ using Cell Quest™ software (Becton-Dickinson PharMingen). […] 1. Mouse IgG2a or IgG2b was used as an isotype control.
Cell lines and antibodies were prepared as described in Example 1. […] Cells (1 3 10 6) were incubated with 5 μg/ml of the appropriate antibody or an isotype-matched negative control in PBS containing 1% HSA for 30 min at 4° C. After three washes with PBS/1% HSA, cells were incubated an additional 30 min at 4° C. with FTTC-coupled goat anti-mouse antibody (1:100 dilution; Calbiochem, San Diego, CA). After three subsequent washes, cells were analyzed on an Epics Elite ESP (Beckman Coulter, Hialeah, FL) by observing a minimum of 20,000 events and analyzed using EXPO (version 2) for Windows.

The next data set relates to xenograft A431. The data set can be described thus: immunohistochemistry of xenograft sections. Also on record: species or system human. Here is the method: (§2) Xenografts were excised and bisected. One half was fixed in 10% formalin/PBS before being embedded in paraffin. Four micron sections were then cut and stained with haematoxylin and eosin (H&E) for routine histological examination. The other half was embedded in Tissue Tek® OCT compound (Sakura Finetek, Torrance, CA), frozen in liquid nitrogen and stored at −80° C. Thin (5 micron) cryostat sections were cut and fixed in ice-cold acetone for 10 min followed by air drying for a further 10 min. Sections were blocked in protein blocking reagent (Lipshaw Immunon, Pittsburgh U.S.A.) for 10 min and then incubated with biotinylated primary antibody (1 mg/ml), for 30 min at room temperature (RT). All antibodies were biotinylated using the ECL™ protein biotinylation module (Amersham, Baulkham Hills, Australia), as per the manufacturer's instructions. After rinsing with PBS, sections were incubated with a streptavidin horseradish peroxidase complex for a further 30 min (Silenus, Melbourne, Australia). Following a final PBS wash the sections were exposed to 3-amino-9-ethylcarbozole (AEC) substrate (0.1 M acetic acid, 0.1 M sodium acetate, 0.02 M AEC (Sigma Chemical Co., St Louis, MO)) in the presence of hydrogen peroxide for 30 min. Sections were rinsed with water and counterstained with hematoxylin for 5 min and mounted.
(§3) Bound antibody was detected using the Dako Envision™+HRP detection system as per manufacturer's instructions. Sections were finally rinsed with water, counterstained with hematoxylin and mounted.

The test system of another data set is xenograft U87MG (native). The experiment in a line: immunohistochemistry of xenograft sections. Also on record: species or system human. The procedure:
as §2, §3

In a further data set the target is T2, deglycosylated sEGFR (Homo sapiens, UniProt P00533).
T2 construct: sEGFR is the recombinant extracellular domain (amino acids 1-621) of the wild-type EGFR; host or cells: CHO cells
The data set can be described thus: immunoblot of PNGase F treated sEGFR. Type of data set: binding. Here is the method:
To determine if carbohydrate structures are directly involved in the mAb806 epitope, the recombinant sEGFR expressed in CHO cells was treated with PNGase F to remove N-linked glycosylation.
Background: A western blot detects proteins with antibodies after separation by electrophoresis.

Source text for A431 cells: As described previously, A431 cells are human squamous carcinoma cells and express high levels of wtEGFR.
The estimates of antibody concentration determined for each sample by the OD Δ280 nm were utilised for FACS analyses with the adenocarcinoma cell line A431 cells (containing EGFR gene amplification). […] Control for secondary antibody alone was also included [Goat anti hu-IgG (Fc specific) FITC conjugated].
Procedure for A431 xenografts: U87MG or A431 cells were injected on one side 7-10 days before U87MG.Δ2-7 cells were injected on the other side because of the faster growth rate observed for de2-7 EGFR expressing xenografts. Antibodies were radiolabeled and assessed for immunoreactivity as described above and were injected into mice by the retro-orbital route when tumors were 100-200 mg in weight. […] Unless indicated, groups of 5 mice were sacrificed at various time points post-injection and blood obtained by cardiac puncture. The tumors, liver, spleen, kidneys and lungs were obtained by dissection. All tissues were weighed and assayed for ^125I and ^131I activity using a dual-channel counting Window. Data was expressed for each antibody as % ID/g tumor determined by comparison to injected dose standards or converted into tumor to blood/liver ratios (i.e. % ID/g tumor divided by % ID/g blood or liver). Differences between groups were analyzed by Student's t-test.
Procedure for U87MG cells: Stained cells were analyzed with a FACS Calibur™ using Cell Quest™ software (Becton-Dickinson PharMingen). […] Mouse IgG2a or IgG2b was used as an isotype control.
Procedure for U87MG.de2-7 cells: PBMCs were isolated from healthy volunteer donor blood. Heparinized whole blood was fractionated by density centrifugation on Ficoll-Hypaque (ICN Biomedical Inc., Ohio, USA). PBMC fractions was collected and washed three times with RPMI+1640 supplemented with 100 U/ml penicillin and 100 μg/ml streptomycin, 2 mM L-glutamine, containing 5% heat-inactivated FCS.
CDC and ADCC assays were performed by a modification of a previously published method (Nelson, D. L. et al. (1991) In: J. E. Colignan, A. M. Kruisbeek, D. D. Margulies, E. M. Shevach, and W. Strober (eds.), Current Protocols in Immunology, pp. 7.27.1. New York: Greene Publishing Wiley Interscience). Briefly, 5×10^6 target U87MG.de2-7 and A431cells were labeled with 50 μCi^51Cr (Geneworks, Adelaide, Australia) per 1×10^6 cells and incubated for 2 hr at 37° C. The cells were then washed three time with PBS (0.05M, pH 7.4) and a fourth wash with culture medium. […]
In the first assay, labelled target cells were plated with the effector cells in 96-well “U” bottom microplates (NUNC, Roskilde, Denmark) at effector/target (E:T) cell ratios of 50:1. […] In both assays, micotitre plates were incubated at 37° C. for 4 hours, then 50 μl supernatant was harvested from each well and released ^51Cr was determined by gamma counting (Cobra II automated Gamma Counter, Canberra Packard, Melbourne, Australia). […]

B1: mAb806: murine monoclonal antibody recognizing de2-7 EGFR and amplified EGFR; VH SEQ ID NO:2, VL SEQ ID NO:4 (antibody, listed as Mus musculus, V domains shown)
VH: MRVLILLWLFTAFPGVLSDVQLQESGPSLVKPSQSLSLTCTVTGYSITSDFAWNWIRQFPGNKLEWMGYISYSGNTRYNPSLKSRISITRDTSKNQFFLQLNSVTIEDTATYYCVTAGRGFPYWGQGTLVTVSA
VL: MVSTAQFLAFLLLWFPGARCDILMTQSPSSMSVSLGDTVSITCHSSQDINSNIGWLQQRPGKSFKGLIYHGTNLDDEVPSRFSGSGSGADYSLTISSLESEDFADYYCVQYAQFPWTFGGGTKLEIKR
Turning to B1, the reactivity result in data set [1] was “no significant reactivity”. Besides, the FACS staining entry is listed as “clearly stained both cell lines but at a lower level” in data set [2]; “Low, but highly reproducible, binding” in the data set with A431 cells; “binding levels similar to the control antibody; also recorded: not with U87MG cells” with U87MG cells; “stained; also recorded: reacted weakly” with U87MG.wtEGFR cells. Moreover, in the data set with U87MG xenografts, the “effect on xenograft growth” value is reported as “no effect”. For the same molecule, the “inhibition of antibody binding to immobilized sEGFR by sEGFR in solution” value in [3] was “unable to inhibit”. Also, the “binding to immobilized wild-type sEGFR” value in data set [3] (DH8.3 up to 10 μg/ml) is “dose-dependent and saturating binding curves”. For the same molecule, the “inhibition of antibody binding to immobilized sEGFR by denatured sEGFR in solution” value in data set [3] (sEGFR heated 10 min at 95° C.) is “able to inhibit”. Further, in the data set with U87MG.de2-7 cells, the ADCC entry was “lack of parental murine mAb806 immune effector function”. The “uptake expressed as % ID/g tumor” value in the data set on A431 xenografts is “comparatively low”. Besides, the mean tumor volume in the data set on U87MG.wtEGFR xenografts is 468±78.38 mm^3 and 500±80 mm^3. Further, in data set [4], the effect on survival entry was “did not extend survival”. Moreover, the immunohistochemical staining entry is given as “pos. (predominantly” in the data set on xenograft A431 and “undetectable” in the data set on xenograft U87MG (native). In the data set with deglycosylated sEGFR, the “binding to deglycosylated sEGFR” value is on record as “clearly bound the deglycosylated material”.
